Results: US20260217833A1 (APTEVO RESEARCH AND DEVELOPMENT, published 2026)
Where two headings read alike, the source gives them in different places. Blank lines part the entries; values can stand above or below the binder they belong to.

How the values were obtained:
Cynomolgus CHOK1SV/CD40 = biological target: T1, Cynomolgus CHOK1SV/CD40; test: flow cytometry, CHOK1SV/cynomolgus CD40 cells
T1 construct: also called Cyno CD40 full-length; CD4001013
T1 receptor chain: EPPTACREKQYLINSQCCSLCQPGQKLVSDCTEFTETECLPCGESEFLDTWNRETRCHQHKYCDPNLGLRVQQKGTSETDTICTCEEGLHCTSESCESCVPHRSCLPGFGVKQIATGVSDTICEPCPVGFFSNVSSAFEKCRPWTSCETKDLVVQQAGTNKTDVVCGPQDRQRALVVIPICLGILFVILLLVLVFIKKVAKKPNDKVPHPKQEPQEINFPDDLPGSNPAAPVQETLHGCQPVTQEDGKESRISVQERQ

human CD40 full-length [1] = biological target: T2, human CD40 full-length (human, UniProt P25942 21-277); test: flow cytometry, CHOK1SV/human CD40 cells
T2 construct: Also used for CD40 of Daudi cells, of CD40-expressing HEK293 cells and of the BPS CD40/NFkB HEK293 reporter cells where the row says so; also called CD4001012; CHOK1SV/CD40

Human PD-L1 full-length = biological target: T3, Human PD-L1 full-length (human, UniProt Q9NZQ7 19-290); test: MSD cell binding, CHOK1SV/human PD-L1 cells; x axis without printed unit
T3 construct: also called PDL01021; CHOK1SV/huPDL1
T3 sequence (Q9NZQ7 19-290): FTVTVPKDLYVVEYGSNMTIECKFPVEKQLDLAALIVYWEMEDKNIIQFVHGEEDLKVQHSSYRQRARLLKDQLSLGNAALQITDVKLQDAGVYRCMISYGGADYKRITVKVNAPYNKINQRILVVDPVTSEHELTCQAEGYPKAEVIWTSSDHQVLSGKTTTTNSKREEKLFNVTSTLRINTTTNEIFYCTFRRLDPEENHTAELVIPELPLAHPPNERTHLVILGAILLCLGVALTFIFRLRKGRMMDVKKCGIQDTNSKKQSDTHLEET

Cyno PD-L1 full-length = biological target: T4, Cyno PD-L1 full-length (cynomolgus, UniProt Q9NZQ7 19-290 (human entry)); test: MSD cell binding, CHOK1SV/cynomolgus PD-L1 cells; x axis without printed unit
T4 construct: also called PDL01022; CHOK1SV/cynoPDL1
T4 sequence (Q9NZQ7 other isoform, or with tags, fused parts or gaps): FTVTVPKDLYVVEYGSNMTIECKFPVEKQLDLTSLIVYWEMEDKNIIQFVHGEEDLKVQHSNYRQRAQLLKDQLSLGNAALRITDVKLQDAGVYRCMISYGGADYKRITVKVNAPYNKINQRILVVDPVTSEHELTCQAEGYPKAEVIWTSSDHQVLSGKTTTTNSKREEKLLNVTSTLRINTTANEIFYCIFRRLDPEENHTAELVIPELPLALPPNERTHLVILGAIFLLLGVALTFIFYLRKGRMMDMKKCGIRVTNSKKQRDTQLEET

human CD40 full-length [2] = biological target: T2, human CD40 full-length; test: flow cytometry, CHOK1SV/human CD40 cells; remark: listed apart in the source
human CD40 ECD- HAC tag = biological target: T5, human CD40 ECD- HAC tag (human); test: SPR, binder captured on anti-human IgG, monomeric CD40 ECD injected, 1:1 fit
T5 construct: also called CD4001006; recombinant monomeric human CD40 ectodomain (ECD)

human CD40 full-length [3] = biological target: T2, human CD40 full-length; test: flow cytometry, CHOK1SV/human CD40 cells; remark: listed apart in the source
Target sequence in this assay (P25942 21-277): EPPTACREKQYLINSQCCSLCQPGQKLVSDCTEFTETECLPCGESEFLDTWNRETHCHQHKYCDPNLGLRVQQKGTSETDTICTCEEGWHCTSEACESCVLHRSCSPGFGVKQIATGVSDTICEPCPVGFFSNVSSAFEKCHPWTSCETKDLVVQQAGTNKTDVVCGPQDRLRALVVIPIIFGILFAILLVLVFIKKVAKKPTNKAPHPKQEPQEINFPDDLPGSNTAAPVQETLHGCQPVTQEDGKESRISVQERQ

binding result (Cynomolgus CHOK1SV/CD40): binds
binding result (human CD40 full-length [1]): binds
B1: PC401129 (bispecific antibody)
scFv-Fc-scFv chain: DIQMTQSPSSLSASVGDRVTITCRASQDINKFLSWYQQKPGKAPKLLIHYTSSLQSGVPSRFSGSGSGTDFTLTISSLQPEDFATYYCLQYDNLYTFGQGTKLEIKGGGGSGGGGSGGGGSGGGGSEVQLVESGGGLVQPGGSLRLSCAASGFTFSDYGMAWVRQAPGKGLEWVSFITSLAYIIYYADSVKGRFTISRDNAKNSLYLQMNSLRAEDTAVYYCARNYGSSPYYFDYWGQGTLVTVSSEPKSSDKTHTCPPCPAPPAAAPSVFLFPPKPKDTLMISRTPEVTCVVVDVSHEDPEVKFNWYVDGVEVHNAKTKPREEQYNSTYRVVSVLTVLHQDWLNGKEYKCAVSNKALPAPIEKTISKAKGQPREPQVYTLPPSRDELTKNQVSLTCLVKGFYPSDIAVEWESNGQPENNYKTTPPVLDSDGSFFLYSKLTVDKSRWQQGNVFSCSVMHEALHNHYTQKSLSLSPGGGGSPSDIQMTQSPSSVSASVGDRVTITCRASQSLNFSVNQKNYLAWYQQKPGKAPKLLIYWASSLQSGVPSRFSGSGSGTDFTLTISSLQPEDFATYYCQHYYSYPWTFGQGTKVEIKGGGGSGGGGSGGGGSGGGGSQVQLVQSGAEVKKPGSSVKVSCKASGYTFSTSWIEWIRQAPGQGLEWMGSILPGSGSTNYAQKFQGRVTITADTSTSTAYMELSSLRSEDTAVYYCARGDDGSYVRWYFDHWGQGTLVTVSS
notes: also called L-Leu30Asn

binding result (Cynomolgus CHOK1SV/CD40): binds
binding result (human CD40 full-length [1]): binds
B2: PC401133 (bispecific antibody)
scFv-Fc-scFv chain: DIQMTQSPSSLSASVGDRVTITCRASQDINKFLSWYQQKPGKAPKLLIHYTSSLQSGVPSRFSGSGSGTDFTLTISSLQPEDFATYYCLQYDNLYTFGQGTKLEIKGGGGSGGGGSGGGGSGGGGSEVQLVESGGGLVQPGGSLRLSCAASGFTFSDYGMAWVRQAPGKGLEWVSFITSLAYIIYYADSVKGRFTISRDNAKNSLYLQMNSLRAEDTAVYYCARNYGSSPYYFDYWGQGTLVTVSSEPKSSDKTHTCPPCPAPPAAAPSVFLFPPKPKDTLMISRTPEVTCVVVDVSHEDPEVKFNWYVDGVEVHNAKTKPREEQYNSTYRVVSVLTVLHQDWLNGKEYKCAVSNKALPAPIEKTISKAKGQPREPQVYTLPPSRDELTKNQVSLTCLVKGFYPSDIAVEWESNGQPENNYKTTPPVLDSDGSFFLYSKLTVDKSRWQQGNVFSCSVMHEALHNHYTQKSLSLSPGGGGSPSDIQMTQSPSSVSASVGDRVTITCRASQSLLFSVNQKNYLAWYQQKPGKAPKLLIYWASSLQSGVPSRFSGSGSGTDFTLTISSLQPEDFATYYCQHYYSYPWTFGQGTKVEIKGGGGSGGGGSGGGGSGGGGSQVQLVQSGAEVKKPGSSVKVSCKASGYTFSTSWIEWIRQAPGQGLEWMGSIQPGSGSTNYAQKFQGRVTITADTSTSTAYMELSSLRSEDTAVYYCARGDDGSYVRWYFDHWGQGTLVTVSS
notes: also called H-Leu52Gln

binding result (Cynomolgus CHOK1SV/CD40): binds
binding result (human CD40 full-length [1]): binds
B3: PC401132 (bispecific antibody)
scFv-Fc-scFv chain: DIQMTQSPSSLSASVGDRVTITCRASQDINKFLSWYQQKPGKAPKLLIHYTSSLQSGVPSRFSGSGSGTDFTLTISSLQPEDFATYYCLQYDNLYTFGQGTKLEIKGGGGSGGGGSGGGGSGGGGSEVQLVESGGGLVQPGGSLRLSCAASGFTFSDYGMAWVRQAPGKGLEWVSFITSLAYIIYYADSVKGRFTISRDNAKNSLYLQMNSLRAEDTAVYYCARNYGSSPYYFDYWGQGTLVTVSSEPKSSDKTHTCPPCPAPPAAAPSVFLFPPKPKDTLMISRTPEVTCVVVDVSHEDPEVKFNWYVDGVEVHNAKTKPREEQYNSTYRVVSVLTVLHQDWLNGKEYKCAVSNKALPAPIEKTISKAKGQPREPQVYTLPPSRDELTKNQVSLTCLVKGFYPSDIAVEWESNGQPENNYKTTPPVLDSDGSFFLYSKLTVDKSRWQQGNVFSCSVMHEALHNHYTQKSLSLSPGGGGSPSDIQMTQSPSSVSASVGDRVTITCRASQSLLFSVNQKNYLAWYQQKPGKAPKLLIYWASSLQSGVPSRFSGSGSGTDFTLTISSLQPEDFATYYCQHYYSYPWTFGQGTKVEIKGGGGSGGGGSGGGGSGGGGSQVQLVQSGAEVKKPGSSVKVSCKASGYTFSTSWIEWIRQAPGQGLEWMGSINPGSGSTNYAQKFQGRVTITADTSTSTAYMELSSLRSEDTAVYYCARGDDGSYVRWYFDHWGQGTLVTVSS
notes: also called H-Leu52Asn

binding result (Cynomolgus CHOK1SV/CD40): binds
B4: CD4001242 (Fc fusion)
chain: EPKSSDKTHTCPPCPAPPAAAPSVFLFPPKPKDTLMISRTPEVTCVVVDVSHEDPEVKFNWYVDGVEVHNAKTKPREEQYNSTYRVVSVLTVLHQDWLNGKEYKCAVSNKALPAPIEKTISKAKGQPREPQVYTLPPSRDELTKNQVSLTCLVKGFYPSDIAVEWESNGQPENNYKTTPPVLDSDGSFFLYSKLTVDKSRWQQGNVFSCSVMHEALHNHYTQKSLSLSPGGGGSPSDIQMTQSPSSVSASVGDRVTITCRASQSLLFSVNQKNYLAWYQQKPGKAPKLLIYWASSLQSGVPSRFSGSGSGTDFTLTISSLQPEDFATYYCQHYYSYPWTFGQGTKVEIKGGGGSGGGGSGGGGSGGGGSQVQLVQSGAEVKKPGSSVKVSCKASGYTFSTSWIEWIRQAPGQGLEWMGSILPGSGSTNYAQKFQGRVTITADTSTSTAYMELSSLRSEDTAVYYCARGDDGSYVRWYFDHWGQGTLVTVSS
notes: also called final humanized version of 1D5

binding result (Human PD-L1 full-length): binds
binding result (Cyno PD-L1 full-length): binds
B5: PDL01041 (Fc fusion)
scFv: DIQMTQSPASLSASVGETVTITCRASENIYSFLAWYQQKQGKSPQLLVYKAKTLTEGVPSRFSGSGSGTQFSLKINSLQPEDFGSYYCQHHYGSPPETFGGGTKVEIKGGGGSGGGGSGGGGSGGGGSDVKLVESGGGLVKPGGSLKLSCAASGFTFSSYTMSWVRQTPEKRLEWVATISSGGNYTYYPDSVKGRFTISRDNAKNTLYLQLSSLKSEDTAMYYCTRDQAYYGNLFTYWGQGTLVTVSA
notes: also called 2C11LH x human IgG1 WT Fc; not shown: human IgG1 WT Fc and any junction residues between scFv and hinge

binding result (human CD40 full-length [2]): binds
B6: CD401136 (Fc fusion)
scFv: DIVMTQSPDSLALSLGERATMNCKSSQSLLFSVNQKNYLAWYQQKPGQPPKLLIYWASTRESGVPDRFSGSGSGTDFTLTISSLQAEDVAVYYCQHYYSYPWTFGQGTKLEIKGGGGSGGGGSGGGGSGGGGSQVQLVQSGAEVKKPGASVKVSCKASGYTFSTSWMEWVRQAPGQGLEWMGEILPGSGSTNYAQKFQGRVTMTRDTSTSTVYMELSSLRSEDTAVYYCARGDDGSYVRWYFDVWGQGTTVTVSS
notes: humanized 1D5 variant; also called CD4001136; not shown: human Fc (scFv-hFc format, scFv at the N-terminus) and its junction

binding result (human CD40 full-length [2]): binds
B7: CD401134 (Fc fusion)
scFv: DIVMTQSPDSLALSLGERATMNCKSSQSLLFSVNQKNYLAWYQQKPGQPPKLLIYWASTRESGVPDRFSGSGSGTDFTLTISSLQAEDVAVYYCQHYYSYPWTFGQGTKLEIKGGGGSGGGGSGGGGSGGGGSQVKLVQSGAEVKKPGASVKVSCKASGYTFSTSWIEWIRQAPGQGLEWIGEILPGSGSTNYAQKFQGRATFTADTSTSTAYMELSSLRSEDTAVYYCARGDDGSYVRWYFDVWGQGTTVTVSS
notes: humanized 1D5 variant; also called CD4001134; not shown: human Fc (scFv-hFc format, scFv at the N-terminus) and its junction

binding result (human CD40 full-length [2]): binds
B8: CD401137 (Fc fusion)
scFv: QIVMTQSPGTLSLSPGERATMTCKSSQSLLFSVNQKNYLAWYQQKPGQAPRLLIYWASTRESGVPDRFSGSGSGTDFTLTISRLEPEDAATYYCQHYYSYPWTFGAGTKLEIKGGGGSGGGGSGGGGSGGGGSQVQLVQSGAEVKKPGASVKVSCKASGYTFSTSWMEWVRQAPGQGLEWMGEILPGSGSTNYAQKFQGRVTMTRDTSTSTVYMELSSLRSEDTAVYYCARGDDGSYVRWYFDVWGQGTTVTVSS
notes: humanized 1D5 variant; also called CD4001137; not shown: human Fc (scFv-hFc format, scFv at the N-terminus) and its junction

binding result (human CD40 full-length [2]): binds
B9: CD401135 (Fc fusion)
scFv: DIVMTQSPDSLALSLGERATMNCKSSQSLLFSVNQKNYLAWYQQKPGQPPKLLIYWASTRESGVPDRFSGSGSGTDFTLTISSLQAEDVAVYYCQHYYSYPWTFGQGTKLEIKGGGGSGGGGSGGGGSGGGGSQVQLVQSGAEVKKPGASVKVSCKASGYTFSTSWIEWVRQAPGQGLEWIGEILPGSGSTNYAQKFQGRATFTADTSTSTAYMELSSLRSEDTAVYYCARGDDGSYVRWYFDVWGQGTTVTVSS
notes: humanized 1D5 variant; also called CD4001135; not shown: human Fc (scFv-hFc format, scFv at the N-terminus) and its junction

binding result (Human PD-L1 full-length): binds
binding result (Cyno PD-L1 full-length): binds
B10: PDL01042 (Fc fusion)
scFv: DIQMTQTTSSLSASLGDRVTISCSASQGIRNYLNWYQQKPDGTVKLLIYYTSTLHSGVPSRFSGSGSGTDYSLTISNLEPEDIATYYCQQYSKLPWTFGGGTRLEIKGGGGSGGGGSGGGGSGGGGSQIQLQQSGPELVKPGASVKISCKASGYTFTDYYINWVKQKPEQGLEWIGWTFPGSINTKYNEKFKGKATLTVDTSSSTAYMQLNSLTSEDTAVYFCARSPYEFDYWGQGTTLTVSS
notes: also called 3G5LH x human IgG1 WT Fc; not shown: human IgG1 WT Fc (hinge-CH2-CH3) fused C-terminal to the scFv, and its junction

Kd (human CD40 ECD- HAC tag): 21 nM
koff (human CD40 ECD- HAC tag): 0.006 s⁻¹
kon (human CD40 ECD- HAC tag): 290000 M⁻¹ s⁻¹
binding result (human CD40 full-length [3]): binds
B11: CD4001100 (Fc fusion)
chain: DVQMTQSPILLSASVGDRVTITCRSSQSLVHYNGYTYVHWYQQRTNGSPRLLIYKVSNRFSGVPDRFSGSGSGTDFTLTISSLQPEDIADYFCQQTTHVPLTFGAGTKVEIKGGGGSGGGGSGGGGSGGGGSEVQLVESGGGLEQPGGSLRLSCAASGFTFSSYAMSWVRQAPGKGLEWVASISSAGTYIYYADSVKGRFTISRDNSKNTLYLQMNSLRAEDTAVYYCARHGNGYDPLWYFDVWGQGTTVTVSS
notes: As m65; not shown: wildtype IgG1 Fc region
